# Source: the DeepSol protein solubility set
# Assay: soluble on expression in E. coli; label from the status in PepcDB or PDB records
row,Sequence,soluble on expression in E. coli
1,MTDEERIELQQNNPLHGLKLETMLQELVDFYGWDILDTAMRFNCFNTKPSIASSVKYLKKTEWAREKLENFYLYRFKRMPRASEEEYNLPPRARTFPHGLEPKEPMPLTVDSILNSQAKAASSFKKRSSRGRPTRRLEHHHHHH,soluble
2,MAEKTRYSDAELEEFRAIIMEKLELAQRDYDQLKMSLMGLDGNDTDDTSPTYKVLEEGANTLSKEETTRLAQRQLKFIQGLQAALVRIENKTYGICRETGKLIPAERLRAVPHATLSIEAKNSGKK,not soluble
3,MSERVKVAILGSGNIGTDLMYKLLKNPGHMELVAVVGIDPKSEGLARARALGLEASHEGIAYILERPEIKIVFDATSAKAHVRHAKLLREAGKIAIDLTPAARGPYVVPPVNLKEHLDKDNVNLITCGGQATIPLVYAVHRVAPVLYAEMVSTVASRSAGPGTRQNIDEFTFTTARGLEAIGGAKKGKAIIILNPAEPPILMTNTVRCIPEDEGFDREAVVASVRAMEREVQAYVPGYRLKADPVFERLPTPWGERTVVSMLLEVEGAGDYLPKYAGNLDIMTASARRVGEVFAQHLLGKPVEEVVA,soluble
4,LFKPNYHFFPITGWMNDPNGLIFWKGKYHMFYQYNPRKPEWGNICWGHAVSDDLVHWRHLPVALYPDDETHGVFSGSAVEKDGKMFLVYTYYRDPTHNKGEKETQCVVMSENGLDFVKYDGNPVISKPPEEGTHAFRDPKVNRSNGEWRMVLGSGKDEKIGRVLLYTSDDLFHWKYEGAIFEDETTKEIDCPDLVRIGEKDILIYSITSTNSVLFSMGELKEGKLNVEKRGLLDHGTDFYAAQTFFGTDRVVVIGWLQSWLRTGLYPTKREGWNGVMSLPRELYVENNELKVKPVDELLALRKRKVFETAKSGTFLLDVKENSYEIVCEFSGEIELRMGNESEEVVITKSRDELIVDTTRSGVSGGEVRKSTVEDEATNRIRAFLDSCSVEFFFNDSIAFSFRIHPENVYNILSVKSNQVKLEVFELENIWL,soluble
5,DKSNKLQNLVAEQLVGCGFNEILNNSLTRAAYYDGLESYPSKNLVMLLNPLSADLNCMRQTLLFGGLESIAHNANRKNADLKFFEFGNCYHFDAEKKNPEKVLAPYSEDYHLGLWVTGKMVSNSWAHADENTSVYELKAYVENIFKRLGLDLHSLVVGNLSDDIYSTALTVNTKGGKRLATFGVVTKKMLKAFDVDNEVYYADLNWK,not soluble
6,MLLPTPEDLKKRRNELGLTQSDLAKRAGVSQPLIARIESGDVDPRLSTVRKILDAFEEAEKERQILIRDLMHSPVLHVSPEDSVEEVVNLMHVHGFSQIPVLDRGIPVGSVSEDMIVRLMGESKKKPISQLKVSGIMGESFPTVSPGISISVVSHILEGNPAVLVVEKGTVVGVVTKHDVMKLLQGQ,not soluble
7,MSIDRTSPLKPVSTVQTRETSDTPVQKTRQEKTSAATSASVTLSDAQAKLMQPGVSDINMERVEALKTAIRNGELKMDTGKIADSLIREAQSYLQSK,not soluble
8,MSLSRLSSPQTFSRVFIVARGAATGHAVAPSSDNSIGYFEKIAYRFKGIPLPTETEAPKSMFDACNKEWSAPELLPSVPKDFKEHPDRDLTNYPYPSRPMYPPKTRLLMMPDSWFTAFQKVTGTSGPYLFFGGLFAFLVNKELWVFEEQGHMTVGWILFYLLVSRTAGYKIDAGLYKDYQERVGFFKGLIQEDLKEAVDFRKTSAAQTASFAALKEGMPTSLKDSMQLQLEAAYRKNVQTISNEIKRRIEYLKETEETKARFERDQLLKLINDSVEKQVSQKDFQEKFLQNAIQQLKGIAV,not soluble
9,MGSDKIHHHHHHMHININMDWLSAKGLPILGLDISTTAIKLVELSDAGKGMLRVERYIIEPLPKDAVSDGNIANLDQVADTLRHAWKTLGSRVKNVALALPSSAVITKKILAPASLTGIELENQVEAEANQVIPFALDEVNLDFQVLGPSPGSPDDMQILLAAARKEKVEDRVAAVEAAGLKALIMDVESYATQAAYEQIAHLLPNGGAGQTVAIIDVGAQNMHINILNDNESVYLREHGFGGNQLNNEIARRYGMSGEEAENAKRKGSLPESYELEVLQPYSETLAMEIGRALQLFTTSTQYRKIDQILLAGGGAMIPGLDEVVAQRTGTPTLVVNPFANMAVASKVRPQALTADAPSLFVACGLAMRRFDSQ,not soluble
10,MATNFLVGEKIWFHKFKYGDAERRFYEQMNGPVAGASLQEASMILHDIARARENIPKSLAGSLGPGASSGPSGDHSELVVRIASLEVDNQRDLAERAGEELARPLGHSPADPAHVSHAPSGAPGQEASHTSRG,soluble
